Laboratory results reported in paper PMC3568674.

B1: GbAH (Granulibacter bethesdensis allophanate hydrolase), wt (Granulibacter bethesdensis CGDNIH1) (protein)
chain: MTLSMTLEGIQAFLAQGGTIEQVVTEAYDRITRYGDKAVWIALRPREEVLAEARALDASPATGKPLYGVPFAVKDNIDVAGLPCSAACPAFTYEPDRDATVVARLRAAGAIVLGKTNLDQFATGLVGTRSPFGAPRCVFDQDYISGGSSSGSAVAVAAGLVAFSLGTDTAGSGRVPAAFNNLVGVKPTKGLLSTSGVVPACRSLDCVTVFAASVAEGTLIRRIAEGYDAADPYSRPSQKRRLPHVGLRVGVPRQDQREFYGNTAYAALYQRALDEMISLDAELVEIDFAPFRDAAKLLYGGPWVAERLEAVGDHLSRAPDSFDPVVRSIVETAKTLSAVDAFRGQYELAALTQQANAQWARMDILLLPTAPTIHKVEAVMADPVRLNSQLGHYTNFVNLLDCAAIAVPAGFIETGLPFGVTLVGPAFSDDSMALIADRLHRRLEPGYGQDRASLPDPVLEETNPEQIALAVVGAHLSGQPLHWQLTERNATLVARTRTAPEYRLYALAETIPPKPGLVADPDFTGDGIEIELWSMDAEAFGTFTALVPAPLAIGTLRLADGTSVKGFVCEPAGLVGAQDITRFGGWRAYLAQ

Experiments:
[1] = test system: NC(=O)NC(=O)O; experiment: purified protein; format: biochemical, Granulibacter bethesdensis; conditions: 50 mM HEPES pH 7.4, 50 mM NaCl, 1 mM EGTA, 25 °C
[2] = substrate: NC(=O)NC(=O)O; experiment: purified protein; format: biochemical, Granulibacter bethesdensis; conditions: 50 mM HEPES pH 7.4, 50 mM NaCl, 1 mM EGTA, 25 °C; remark: listed apart in the source

Molecule | Km [1] | kcat [1] | kcat/Km [1] | Km [2] | kcat [2] | kcat/Km [2]
GbAH (Granulibacter bethesdensis allophanate hydrolase), wt (Granulibacter bethesdensis CGDNIH1; Y299A) | 3000 ± 400 µM | 0.071 ± 0.002 s⁻¹ | 24 ± 3 M⁻¹ s⁻¹ | – | – | –
GbAH (Granulibacter bethesdensis allophanate hydrolase), wt (Granulibacter bethesdensis CGDNIH1; Y299F) | 1200 ± 100 µM | 0.042 ± 0.001 s⁻¹ | 35 ± 3 M⁻¹ s⁻¹ | – | – | –
B1 | – | – | – | 100 ± 2 µM | 18 ± 1 s⁻¹ | 180000 ± 3000 M⁻¹ s⁻¹
